Residue numbers refer to the chain shown, from its start. Numbers in names are those of the source. Read-outs that look alike come from different tables or passages of the source.
Assays:
[1] = target: Campylobacter sp. FOBRC14 isocitrate dehydrogenase (Campylobacter sp. FOBRC14); assay: SEC; Superdex 200 10/300 column, 0.05 M potassium phosphate pH 7.0, 0.15 M NaCl, 0.01% sodium azide, flow 0.5 ml/min; mass estimated against protein standards
[2] = target: Ostreococcus lucimarinus CCE9901 isocitrate dehydrogenase (Ostreococcus lucimarinus CCE9901); assay: as above
[3] = target: Ostreococcus lucimarinus CCE9901 isocitrate dehydrogenase (Ostreococcus lucimarinus CCE9901); assay: MALDI-TOF/TOF mass spectrometry; AB SCIEX MALDI TOF-TOF 5800, linear high mass positive-ion mode, SA matrix, TFA as ionization auxiliary reagent
[4] = tested on: NC(=O)c1ccc[n+]([C@@H]2O[C@H](COP(=O)(O)OP(=O)(O)OC[C@H]3O[C@@H](n4cnc5c(N)ncnc54)[C@H](OP(=O)(O)O)[C@@H]3O)[C@@H](O)[C@H]2O)c1; assay: purified protein; conditions: 1.0 mM isocitrate fixed, 35 mM Tris-HCl pH 7.5, 2 mM MgCl2 or MnCl2, 25°C, varied: cofactor
[5] = tested on: NC(=O)c1ccc[n+]([C@@H]2O[C@H](COP(=O)(O)OP(=O)(O)OC[C@H]3O[C@@H](n4cnc5c(N)ncnc54)[C@H](O)[C@@H]3O)[C@@H](O)[C@H]2O)c1; assay: purified protein; conditions: 1.0 mM isocitrate fixed, 35 mM Tris-HCl pH 7.5, 2 mM MgCl2 or MnCl2, 25°C, varied: cofactor
[6] = tested on: T1, CaIDH; conditions: read-out: NAD^+ / Km; 1.0 mM isocitrate fixed; 35 mM Tris-HCl pH 7.5, 2 mM MgCl2 or MnCl2, 25°C; Methods print the second mutation as Asp594Arg
T1 construct: gene IDH

[7] = tested on: T1, CaIDH; conditions: read-out: NADP^+ / Km; 1.0 mM isocitrate fixed; 35 mM Tris-HCl pH 7.5, 2 mM MgCl2 or MnCl2, 25°C; Methods print the second mutation as Asp594Arg
[8] = substrate: NC(=O)c1ccc[n+]([C@@H]2O[C@H](COP(=O)(O)OP(=O)(O)OC[C@H]3O[C@@H](n4cnc5c(N)ncnc54)[C@H](OP(=O)(O)O)[C@@H]3O)[C@@H](O)[C@H]2O)c1; assay: purified protein; assay type: biochemical, Micromonas commoda; conditions: 1.0 mM isocitrate fixed, 35 mM Tris-HCl pH 7.5, 2 mM MgCl2 or MnCl2, 25°C, varied: cofactor
[9] = substrate: NC(=O)c1ccc[n+]([C@@H]2O[C@H](COP(=O)(O)OP(=O)(O)OC[C@H]3O[C@@H](n4cnc5c(N)ncnc54)[C@H](O)[C@@H]3O)[C@@H](O)[C@H]2O)c1; assay: purified protein; assay type: biochemical, Micromonas commoda; conditions: 1.0 mM isocitrate fixed, 35 mM Tris-HCl pH 7.5, 2 mM MgCl2 or MnCl2, 25°C, varied: cofactor
[10] = substrate: NC(=O)c1ccc[n+]([C@@H]2O[C@H](COP(=O)(O)OP(=O)(O)OC[C@H]3O[C@@H](n4cnc5c(N)ncnc54)[C@H](OP(=O)(O)O)[C@@H]3O)[C@@H](O)[C@H]2O)c1; assay: purified protein; assay type: biochemical, Ostreococcus sp. 'lucimarinus'; conditions: 1.0 mM isocitrate fixed, 35 mM Tris-HCl pH 7.5, 2 mM MgCl2 or MnCl2, 25°C, varied: cofactor
[11] = substrate: NC(=O)c1ccc[n+]([C@@H]2O[C@H](COP(=O)(O)OP(=O)(O)OC[C@H]3O[C@@H](n4cnc5c(N)ncnc54)[C@H](O)[C@@H]3O)[C@@H](O)[C@H]2O)c1; assay: purified protein; assay type: biochemical, Ostreococcus sp. 'lucimarinus'; conditions: 1.0 mM isocitrate fixed, 35 mM Tris-HCl pH 7.5, 2 mM MgCl2 or MnCl2, 25°C, varied: cofactor

Q: “Campylobacter sp. FOBRC14 isocitrate dehydrogenase (enzyme)” was tested. Which fraction eluting as dimer [1] did it give?
A: < 5%

Q: Which results are given for “Ostreococcus lucimarinus CCE9901 isocitrate dehydrogenase (enzyme)”?
A: stoichiometry N [2]: 2; stoichiometry N [3]: 2

Q: What does the source list for CaIDH (Campylobacter sp. FOBRC14)?
A: Km [4]: 513.2 ± 14.9 µM; kcat [4]: 1.9 ± 0.1 s⁻¹; kcat/Km [4]: 4000 M⁻¹ s⁻¹; Km [5]: 28.9 ± 4.5 µM; kcat [5]: 7 ± 0.8 s⁻¹; kcat/Km [5]: 242000 M⁻¹ s⁻¹

Q: `NC(=O)c1ccc[n+]([C@@H]2O[C@H](COP(=O)(O)OP(=O)(O)OC[C@H]3O[C@@H](n4cnc5c(N)ncnc54)[C@H](O)[C@@H]3O)[C@@H](O)[C@H]2O)c1` [NAD^+] was tested. Which Km [6] did it give?
A: 493 ± 52.5 µM

Q: For `NC(=O)c1ccc[n+]([C@@H]2O[C@H](COP(=O)(O)OP(=O)(O)OC[C@H]3O[C@@H](n4cnc5c(N)ncnc54)[C@H](OP(=O)(O)O)[C@@H]3O)[C@@H](O)[C@H]2O)c1` [NADP^+], which Km [7] is on record?
A: 11.4 ± 4.6 µM

B1: MiIDH (Micromonas commoda) (protein)
chain: MAAASAGGKIQAAPMVYVAGEEMTRYTMDLILERWIKPHVDTSAWEFFDLRAKNRDDTEDQVLRDVISAGARLKAIFKEPTITPTADQVKRLGLKKAWGSPNGAMRRGWNGITISRDTIHIDGVELGYKKPVFFERHAVGGEYSAGYKIVGKGKLTTTFVPEAGGEPIVVDDRKITDDLNAVVAYHNPLDNVAHLARIFFGRCLDAGIVPYVVTKKTVFKWQEPFWESMKTVFDAEFKQKFYEKGVMKPGSELVHLLSDAATMKLVVWTDGGFGMAAHNYDGDVLTDELAQVHKSPGFITSNLVGVDDNGTLIKEFEASHGTVTDMDEARLRGEETSLNPLGMVEGLIGAMNHAADVHGGSSGVHPWTGKLRAVIHKLFREGRGTRDLCGAGGLTTEQFIDAVAEEL
notes: full-length synthetic codon-optimised gene in pET-28b(+) NdeI/XhoI, 6xHis-tagged, E. coli Rosetta (DE3); described as homodimeric
Q: With B1 as the molecule, how does the Km [8] read?
A: 1827 ± 42.4 µM

Q: What about the kcat [8] of the same molecule?
A: 1.4 ± 0.2 s⁻¹

Q: What about the kcat/Km [8] of the same molecule?
A: 800 M⁻¹ s⁻¹

Q: And the Km [9]?
A: 126 ± 5.3 µM

Q: And the kcat [9]?
A: 22.5 ± 2 s⁻¹

Q: What about the kcat/Km [9] of the same molecule?
A: 179000 M⁻¹ s⁻¹

B2: OlIDH (Ostreococcus lucimarinus CCE9901) (protein)
chain: MSANASKITAAPMVYVRGEEMTAYVMDLIRAKWIEPRVDTTAWREFDLRAKNRDDTEDQVLRDVIEAGKAVKAIFKEPTVTPTADQVKRLGLRKSWGSPNGAMRRGWNGITISRDTIHIDGVELGYKKPVFFERHAVGGEYAAGYKNVGKGTLVTTFTPSEGPDAGKPVEVDSRTITDNEAAVVTYHNPYDNVHELARFFFGRCLEAKITPYVVTKKTVFKWQEPFWQIMKKVFDEEYKSKFVDAGVMKSGDELVHLLSDAATMKLVQWRQGGFGMAAHNYDGDVLTDELAQIHKSPGFITSNLVGVDENGTLIKEFEASHGTVADMDEARLRGEETSLNPLGMVEGLIGAMNHAADVHNVDKERTLAFTAKMRAVIHQLFREGKGTRDLSGPSGLTTEQFVDAVAERL
notes: full-length synthetic codon-optimised gene in pET-28b(+) NdeI/XhoI, 6xHis-tagged, E. coli Rosetta (DE3); about 46 kDa subunit, 415 residues as used in CD calculation; homodimer 93 kDa by MALDI
Q: How did the Km [10] turn out when B2 was run?
A: 2211 ± 75 µM

Q: And the kcat [10]?
A: 10 ± 1.6 s⁻¹

Q: What about the kcat/Km [10] of the same molecule?
A: 4500 M⁻¹ s⁻¹

Q: And the Km [11]?
A: 136.6 ± 13.6 µM

Q: What about the kcat [11] of the same molecule?
A: 60.6 ± 3.8 s⁻¹

Q: What about the kcat/Km [11] of the same molecule?
A: 444000 M⁻¹ s⁻¹

B3: OlIDH (Ostreococcus lucimarinus CCE9901; D326R/M327H) (protein)
chain: B2 chain with D326R, M327H
notes: as for B2
Q: With B3 as the molecule, how does the Km [10] read?
A: 8.2 ± 1.9 µM

Q: What about the kcat [10] of the same molecule?
A: 1.8 ± 0.2 s⁻¹

Q: What about the kcat/Km [10] of the same molecule?
A: 220000 M⁻¹ s⁻¹

Q: What about the Km [11] of the same molecule?
A: 2941.3 ± 75.8 µM

Q: And the kcat [11]?
A: 29.1 ± 7.9 s⁻¹

Q: What about the kcat/Km [11] of the same molecule?
A: 10000 M⁻¹ s⁻¹
